Experimental data: PMC7199863 (The Journal of Cell Biology, 2020)

Molecular target: T1, FLAG-tagged fragment of CC-afadin (coiled-coil region of afadin, aa 1386-1595) (mouse)
T1 chain: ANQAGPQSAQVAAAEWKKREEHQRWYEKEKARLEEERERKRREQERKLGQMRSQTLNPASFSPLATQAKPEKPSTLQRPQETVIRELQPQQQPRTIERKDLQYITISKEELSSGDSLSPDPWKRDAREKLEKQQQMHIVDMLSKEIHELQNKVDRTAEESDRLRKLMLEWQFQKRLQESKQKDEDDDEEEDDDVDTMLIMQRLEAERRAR
Test: sucrose density gradient centrifugation

stoichiometry N: 1
B1: αE-catenin fragment MIII-C (aa 509-906) (domain or fragment)
chain: DDFLAVSENHILEDVNKCVIALQEKDVDGLDRTAGAIRGRAARVIHVVTSEMDNYEPGVYTEKVLEATKLLSNTVMPRFTEQVEAAVEALSSDPAQPMDENEFIDASRLVYDGIRDIRKAVLMIRTPEELDDSDFETEDFDVRSRTSVQTEDDQLIAGQSARAIMAQLPQEQKAKIAEQVASFQEEKSKLDAEVSKWDDSGNDIIVLAKQMCMIMMEMTDFTRGKGPLKNTSDVISAAKKIAEAGSRMDKLGRTIADHCPDSACKQDLLAYLQRIALYCHQLNICSKVKAEVQNLGGELVVSGVDSAMSLIQAAKNLMNAVVQTVKASYVASTKYQKSQGMASLNLPAVSWKMKAPEKKPLVKREKQDETQTKIKRASQKKHVNPVQALSEFKAMDSI
